Test results reported in IntAct's records for PubMed 19696741.

B1: Carboxypeptidase Y (Saccharomyces cerevisiae), P00729 (parent)
chain: MKAFTSLLCGLGLSTTLAKAISLQRPLGLDKDVLLQAAEKFGLDLDLDHLLKELDSNVLDAWAQIEHLYPNQVMSLETSTKPKFPEAIKTKKDWDFVVKNDAIENYQLRVNKIKDPKILGIDPNVTQYTGYLDVEDEDKHFFFWTFESRNDPAKDPVILWLNGGPGCSSLTGLFFELGPSSIGPDLKPIGNPYSWNSNATVIFLDQPVNVGFSYSGSSGVSNTVAAGKDVYNFLELFFDQFPEYVNKGQDFHIAGESYAGHYIPVFASEILSHKDRNFNLTSVLIGNGLTDPLTQYNYYEPMACGEGGEPSVLPSEECSAMEDSLERCLGLIESCYDSQSVWSCVPATIYCNNAQLAPYQRTGRNVYDIRKDCEGGNLCYPTLQDIDDYLNQDYVKEAVGAEVDHYESCNFDINRNFLFAGDWMKPYHTAVTDLLNQDLPILVYAGDKDFICNWLGNKAWTDVLPWKYDEEFASQKVRNWTASITDEVAGEVKSYKHFTYLRVFNGGHMVPFDVPENALSMVNEWIHGGFSL
partner: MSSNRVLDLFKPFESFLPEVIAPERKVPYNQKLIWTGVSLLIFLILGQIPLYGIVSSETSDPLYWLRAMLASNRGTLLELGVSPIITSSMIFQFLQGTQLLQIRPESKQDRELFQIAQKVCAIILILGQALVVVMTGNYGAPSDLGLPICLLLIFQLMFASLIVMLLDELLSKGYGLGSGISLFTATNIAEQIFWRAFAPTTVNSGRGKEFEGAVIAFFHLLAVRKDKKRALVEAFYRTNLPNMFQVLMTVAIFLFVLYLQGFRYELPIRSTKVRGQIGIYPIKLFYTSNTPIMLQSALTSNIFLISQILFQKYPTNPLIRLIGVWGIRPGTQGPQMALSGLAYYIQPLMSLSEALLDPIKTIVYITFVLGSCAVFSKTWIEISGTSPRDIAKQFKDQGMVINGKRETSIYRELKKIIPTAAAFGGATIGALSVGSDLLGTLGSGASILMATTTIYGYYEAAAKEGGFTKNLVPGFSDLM

Variants of: B1
Details: with sc61a_yeast SEC61, P32915

effect of a mutation on the interaction	Variant
increasing interaction	G255R
